Reference: patent US20240116985A1 (published 2024)
Starred links: 1 amine or outer side, 2 acyl side, 3 side chain; linkers in the order of their positions; H or OH if unused. Positions of bridges follow the written chain, without caps; N, C: chain ends. Non-standard residues stand in square brackets, D forms with d. Primed or numbered codes have the meaning given here. (Me2NPrPip)GlnR = (S)-2-amino-5-(4-(3-(dimethylamino)propyl)piperazin-1-yl)-5-oxopentanoic acid, CN(C)CCCN1CCN(C(=O)CC[C@H](N[*:1])C(=O)[*:2])CC1; PyrS2″ = (S)-3-amino-1-((pent-4-en-1-yloxy)carbonyl)pyrrolidine-3-carboxylic acid (stapling residue), C=CCCCOC(=O)N1CC[C@@](N[*:1])(C(=O)[*:2])C1; (RDMAPyr)GlnR = (S)-2-amino-5-((R)-3-(dimethylamino)pyrrolidin-1-yl)-5-oxopentanoic acid, CN(C)[C@@H]1CCN(C(=O)CC[C@H](N[*:1])C(=O)[*:2])C1; B5(5) = 2,2-bis(4-pentenyl)glycine, 2-amino-2-(pent-4-en-1-yl)hept-6-enoic acid (stitching residue), C=CCCCC(CCCC=C)(N[*:1])C(=O)[*:2]; TfeGA = (S)-2-amino-3-((carboxymethyl)(2,2,2-trifluoroethyl)amino)propanoic acid, O=C([C@H](CN(CC(=O)[*:3])CC(F)(F)F)N[*:1])[*:2]; PyrS2 = (S)-3-amino-1-((pent-4-en-1-yloxy)carbonyl)pyrrolidine-3-carboxylic acid, C=CCCCOC(=O)N1CC[C@@](N[*:1])(C(=O)[*:2])C1; B5(12) = 2-amino-2-(pent-4-en-1-yl)hept-6-enoic acid (two olefin side chains), C=CCCCC(CCCC=C)(N[*:1])C(=O)[*:2]; B5(3) = 2,2-bis(4-pentenyl)glycine (stitching residue), C=CCCCC(CCCC=C)(N[*:1])C(=O)[*:2]; Phe(3-COOH) = N[C@@H](Cc1cccc(C(=O)O)c1)C(=O)O; Phe(2-Cl) = N[C@@H](Cc1ccccc1Cl)C(=O)O; Bta = N[C@@H](Cc1csc2ccccc12)C(=O)O; αAllylPro = C=CC[C@@]1(C(=O)O)CCCN1; tBuAla = CC(C)(C)C[C@H](N)C(=O)O; 3Thi = N[C@@H](Cc1ccsc1)C(=O)O; Cba = N[C@@H](CC1CCC1)C(=O)O; PyrS2(4) = not defined here; S5 = C=CCCC[C@](C)(N)C(=O)O; TfeGA″ = not defined here; Aib = CC(C)(N)C(=O)O

T1: B-cat-Halo (beta-catenin HaloTag NanoBRET construct expressed in HEK293 cells) (UniProt P35222 1-781, HaloTag NanoBRET 618 Ligand bound in the assay)
T1 sequence (looked up): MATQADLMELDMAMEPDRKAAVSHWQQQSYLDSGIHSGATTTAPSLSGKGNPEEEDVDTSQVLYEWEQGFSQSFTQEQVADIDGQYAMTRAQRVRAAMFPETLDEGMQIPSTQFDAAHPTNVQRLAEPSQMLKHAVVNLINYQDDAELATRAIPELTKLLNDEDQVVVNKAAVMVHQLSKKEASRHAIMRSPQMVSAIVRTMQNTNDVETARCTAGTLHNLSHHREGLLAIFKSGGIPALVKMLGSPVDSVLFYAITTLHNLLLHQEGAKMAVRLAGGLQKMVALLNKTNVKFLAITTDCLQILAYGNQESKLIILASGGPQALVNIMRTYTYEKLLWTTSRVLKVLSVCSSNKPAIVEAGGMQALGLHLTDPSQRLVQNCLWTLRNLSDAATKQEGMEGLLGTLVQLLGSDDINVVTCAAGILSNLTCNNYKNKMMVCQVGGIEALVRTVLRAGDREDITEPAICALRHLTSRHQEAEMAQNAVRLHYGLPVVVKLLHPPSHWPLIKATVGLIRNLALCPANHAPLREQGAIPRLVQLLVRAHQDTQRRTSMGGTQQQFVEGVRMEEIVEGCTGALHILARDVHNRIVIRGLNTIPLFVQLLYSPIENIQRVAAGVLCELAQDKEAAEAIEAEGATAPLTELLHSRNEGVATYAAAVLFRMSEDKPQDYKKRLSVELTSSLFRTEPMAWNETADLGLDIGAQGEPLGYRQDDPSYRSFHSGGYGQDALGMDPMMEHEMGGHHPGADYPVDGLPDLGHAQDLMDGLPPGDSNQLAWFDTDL

T2: B-cat-Halo (beta-catenin HaloTag NanoBRET construct expressed in HEK293 cells) (UniProt P35222 1-781)
T2 sequence (looked up): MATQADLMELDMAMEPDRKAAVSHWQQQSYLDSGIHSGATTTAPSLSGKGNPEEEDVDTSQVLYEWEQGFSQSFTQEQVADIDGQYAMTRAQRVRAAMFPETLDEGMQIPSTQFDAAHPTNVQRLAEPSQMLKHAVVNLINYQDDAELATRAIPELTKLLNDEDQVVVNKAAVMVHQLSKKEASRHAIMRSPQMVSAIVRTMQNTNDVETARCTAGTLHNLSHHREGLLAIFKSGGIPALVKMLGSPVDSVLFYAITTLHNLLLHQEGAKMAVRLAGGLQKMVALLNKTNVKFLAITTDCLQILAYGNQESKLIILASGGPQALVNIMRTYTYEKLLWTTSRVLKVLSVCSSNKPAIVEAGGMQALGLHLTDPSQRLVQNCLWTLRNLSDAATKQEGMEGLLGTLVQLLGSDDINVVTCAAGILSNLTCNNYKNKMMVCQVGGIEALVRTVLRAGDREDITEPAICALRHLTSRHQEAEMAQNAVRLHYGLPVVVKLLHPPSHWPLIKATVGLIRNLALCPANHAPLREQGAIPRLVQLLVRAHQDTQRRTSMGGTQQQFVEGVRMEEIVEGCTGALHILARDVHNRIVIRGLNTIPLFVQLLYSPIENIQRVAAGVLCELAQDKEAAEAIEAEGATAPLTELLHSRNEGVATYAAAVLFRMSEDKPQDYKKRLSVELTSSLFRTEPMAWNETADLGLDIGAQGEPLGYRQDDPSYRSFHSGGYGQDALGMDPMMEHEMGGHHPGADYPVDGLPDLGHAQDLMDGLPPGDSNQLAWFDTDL

B1: I-1807 (peptide)
peptide: Ac-[αAllylPro]D[tBuAla][S5]DDAAFL[Aib][3Thi][Bta]Q-NH2
modifications: staple 1-4; not fully specified; printed as Ac-PL3-Asp-Npg-S5-Asp-Asp-Ala-Ala-Phe-Leu-Aib-3Thi-BztA-Gln-NH2
B2: I-1890 (peptide)
peptide: Ac-[αAllylPro]D[tBuAla][B5(5)]DRAAFN[PyrS2][3Thi][Bta]Q-NH2
modifications: staple 1-4, 4-11; not fully specified; printed as Ac-PL3-Asp-Npg-B5-Asp-Arg-Ala-Ala-Phe-Asn-PyrS2-3Thi-BztA-Gln-NH2
B3: I-1891 (peptide)
peptide: Ac-[αAllylPro]D[tBuAla][B5(5)]DRAAFN[PyrS2][3Thi][Bta]Q-NH2
modifications: staple 1-4, 4-11; not fully specified; printed as Ac-PL3-Asp-Npg-B5-Asp-Arg-Ala-Ala-Phe-Asn-PyrS2-3Thi-BztA-Gln-NH2
B4: I-1898 (peptide)
peptide: Ac-[αAllylPro]D[tBuAla][B5(5)]D[Phe(3-COOH)]AAFL[PyrS2][Cba][Bta]S-NH2
modifications: staple 1-4, 4-11; not fully specified; printed as Ac-PL3-Asp-Npg-B5-Asp-3COOHF-Ala-Ala-Phe-Leu-PyrS2-Cba-BztA-Ser-NH2
B5: I-1902 (peptide)
peptide: Ac-[αAllylPro]D[tBuAla][B5(5)]D[Phe(3-COOH)]SAFL[PyrS2(4)][Phe(2-Cl)][Bta]S-NH2
modifications: staple 1-4, 4-11; not fully specified; printed as Ac-PL3-Asp-Npg-B5-Asp-3COOHF-Ser-Ala-Phe-Leu-PyrS2-2C1F-BztA-Ser-NH2; reading uncertain
B6: I-1901 (peptide)
peptide: Ac-[αAllylPro]D[tBuAla][B5(5)]D[Phe(3-COOH)]SAFL[PyrS2][Phe(2-Cl)][Bta]S-NH2
modifications: staple 1-4, 4-11; not fully specified; printed as Ac-PL3-Asp-Npg-B5-Asp-3COOHF-Ser-Ala-Phe-Leu-PyrS2-2C1F-BztA-Ser-NH2
B7: I-1903 (peptide)
peptide: Ac-[αAllylPro]D[tBuAla][B5(12)]D[Phe(3-COOH)]AAFS[PyrS2(4)][Phe(2-Cl)][Bta]S-NH2
modifications: staple 1-4, 4-11; not fully specified; printed as Ac-PL3-Asp-Npg-B5-Asp-3COOHF-Ala-Ala-Phe-Ser-PyrS2-2C1F-BztA-Ser-NH2; reading uncertain

target: T1, B-cat-Halo (beta-catenin HaloTag …); experiment: cell-based or functional assay

Ac-[αAllylPro]D[tBuAla][B5(3)]D[TfeGA]AAFL[PyrS2″][3Thi][Bta][(RDMAPyr)GlnR]-NH2 (staple 1-4, 4-11; not fully specified) [I-1804] and Ac-[αAllylPro]D[tBuAla][B5(3)]DDAAFL[PyrS2″][3Thi][Bta]Q-NH2 (staple 1-4, 4-11; also: staple olefins reduced to -CH2-CH2-) [I-1808] are within 1.5-fold of each other in “NanoBRET Abs IC50” value: 9.4 µM for the first, 14 µM for the second.

B1 and Ac-[αAllylPro]D[tBuAla][B5(3)]D[TfeGA″]AAFL[PyrS2″][3Thi][Bta][(4MePpzPip)GlnR]-NH2 (staple 1-4, 4-11; not fully specified; reading uncertain) [I-1802] cannot be ordered by “NanoBRET Abs IC50” value: over 20 µM for the first, 25.2 µM for the second.

Going from Ac-[αAllylPro]D[tBuAla][B5(3)]D[TfeGA]AAFL[PyrS2″][3Thi][Bta][(RDMAPyr)GlnR]-NH2 (staple 1-4, 4-11; not fully specified) [I-1805] to Ac-[αAllylPro]D[tBuAla][B5(3)]D[TfeGA″]AAFL[PyrS2″][3Thi][Bta][(Me2NPrPip)GlnR]-NH2 (staple 1-4, 4-11; not fully specified; reading uncertain) [I-1800], the “NanoBRET Abs IC50” value rises from 9.3 µM to 25.2 µM (2.7-fold).

With Ac-[αAllylPro]D[tBuAla][B5(3)]D[TfeGA]AAFL[PyrS2″][3Thi][Bta][(Me2NPrPip)GlnR]-NH2 (staple 1-4, 4-11; not fully specified) [I-1799] the “NanoBRET Abs IC50” value was 25.8 µM.

target: T2, B-cat-Halo (beta-catenin HaloTag …); experiment: cell-based or functional assay

B2 and B3 cannot be ordered by “NanoBRET Abs IC50” value: over 20 µM for the first, over 20 µM for the second.

B4 and B5 are within 1.5-fold of each other in “NanoBRET Abs IC50” value: 10.9 µM for the first, 7.7 µM for the second.

B6 and B7 are within 1.5-fold of each other in “NanoBRET Abs IC50” value: 4.9 µM for the first, 6.4 µM for the second.
